Drawing on article doi:10.1101/2023.12.13.571598, this text covers percent FRET-positive cells (100 nM recombinant tau fibrils) for one substance.

In the experiment the target is P301S tauRD-mEOS3.2 (human). Kind of experiment: FRET or BRET. Background: BRET reads energy transfer from a luciferase to a nearby fluorophore.

Regarding “P301S tauRD-mEOS3.2 (domain or fragment)”, the percent FRET-positive cells (100 nM recombinant tau fibrils) is 74%.
